Ends that are not written are not given here.
Legend:
[1] = test system: A549 cell monolayer; experiment: Cellular barrier permeability (Transwell) assay and empirical model of phage transport; type: in vitro ADME, human; conditions: A549 cells, different concentrations, 1 h
Text: To investigate the transport of phage particles across the cellular monolayer, data from the in vitro Transwell assays (FIG. 3E) was used to quantify the parameters of an empirical mathematical model of phage accumulation in the bottom chamber (Equation 1). The mass of phage particles [N(t), measured experimentally as TU] transported across the cellular barrier at time t, was represented by Equation (Eq. 1), as follows:
where, Ns represent the mass of phage particles (TU) in the bottom chamber at saturation; k is the transport rate constant, the inverse of which gives the characteristic time (τ=1/k) of the transport process. The first derivative of Equation 1
provides the time-dependent transport rate of phage particles across the in vitro cellular barrier. Least squares fitting of the model to the experimental data was performed in MATLAB. The transport rate decays exponentially over time at rate k, and its maximal value can be determined at time t=0 as […]

[2] = target: T1, human recombinant α3β1 integrin (Homo sapiens, UniProt P05556+P26006); experiment: Phage binding assay to immobilized recombinant proteins; conditions: increasing molar concentrations, relative to unrelated control peptide
T1 construct: purchased R&D Systems
Description: Phage binding to recombinant proteins (α3β1, α6β1, α6β4, NRP-1 and SDC-1) and BSA (Sigma) were performed as described (Cardó-Vila, et al., 2008, PLoS One 3:e3452). Briefly, 100 ng of each of the indicated proteins dissolved in 50 μL PBS were immobilized in microtiter wells overnight (ON) at 4° C. […] After 2 h at RT, wells were gently washed 10 times with PBS, and phage was recovered by host bacterial infection and represented as “Relative TU” as an empirical measure of the biological replicates and controls when compared to one another as described (Arap, W. et al., Nat. Med., 2002, 8:121-127; Cardó-Vila, et al., 2008, PLoS One 3:e3452). Human recombinant proteins α3β1, α6β1, α6β4, NRP-1 and SDC-1 were all commercially obtained from R&D Systems. Recombinant GST and […]-GST were produced in E. coli transformed with the pGEX4T-1 plasmid (Amersham, GE Healthcare) and purified with standard protocols. All synthetic peptides were custom manufactured by Merrifield synthesis and quality-controlled to the necessary specifications (Biomatik and PolyPeptide Laboratories).

[3] = target: T2, human recombinant α3β1 integrin (human, UniProt P26006 33-991; P05556 21-728); experiment: competition of phage binding to immobilised α3β1 (FIG. 3B)
T2 construct: Bought protein, 100 ng immobilised in microtiter wells; also called α3β1 integrins

[4] = target: T3, mouse α3β1 integrin expressed on the plasma membrane of AT1 and AT2 alveolar epithelial cells and club cells (mouse, UniProt Q62470 33-1053; P09055 21-798); experiment: TU count of phage recovered from flow-sorted mouse lung cells after aerosol administration
T3 construct: whole, on cells; Target on lung cells of BALB/c mice after aerosol administration of phage; also called α3β1 integrins in lung tissue; α3β1 integrin in vivo
T3 sequence (Q62470 33-1053, chain 1 of 2): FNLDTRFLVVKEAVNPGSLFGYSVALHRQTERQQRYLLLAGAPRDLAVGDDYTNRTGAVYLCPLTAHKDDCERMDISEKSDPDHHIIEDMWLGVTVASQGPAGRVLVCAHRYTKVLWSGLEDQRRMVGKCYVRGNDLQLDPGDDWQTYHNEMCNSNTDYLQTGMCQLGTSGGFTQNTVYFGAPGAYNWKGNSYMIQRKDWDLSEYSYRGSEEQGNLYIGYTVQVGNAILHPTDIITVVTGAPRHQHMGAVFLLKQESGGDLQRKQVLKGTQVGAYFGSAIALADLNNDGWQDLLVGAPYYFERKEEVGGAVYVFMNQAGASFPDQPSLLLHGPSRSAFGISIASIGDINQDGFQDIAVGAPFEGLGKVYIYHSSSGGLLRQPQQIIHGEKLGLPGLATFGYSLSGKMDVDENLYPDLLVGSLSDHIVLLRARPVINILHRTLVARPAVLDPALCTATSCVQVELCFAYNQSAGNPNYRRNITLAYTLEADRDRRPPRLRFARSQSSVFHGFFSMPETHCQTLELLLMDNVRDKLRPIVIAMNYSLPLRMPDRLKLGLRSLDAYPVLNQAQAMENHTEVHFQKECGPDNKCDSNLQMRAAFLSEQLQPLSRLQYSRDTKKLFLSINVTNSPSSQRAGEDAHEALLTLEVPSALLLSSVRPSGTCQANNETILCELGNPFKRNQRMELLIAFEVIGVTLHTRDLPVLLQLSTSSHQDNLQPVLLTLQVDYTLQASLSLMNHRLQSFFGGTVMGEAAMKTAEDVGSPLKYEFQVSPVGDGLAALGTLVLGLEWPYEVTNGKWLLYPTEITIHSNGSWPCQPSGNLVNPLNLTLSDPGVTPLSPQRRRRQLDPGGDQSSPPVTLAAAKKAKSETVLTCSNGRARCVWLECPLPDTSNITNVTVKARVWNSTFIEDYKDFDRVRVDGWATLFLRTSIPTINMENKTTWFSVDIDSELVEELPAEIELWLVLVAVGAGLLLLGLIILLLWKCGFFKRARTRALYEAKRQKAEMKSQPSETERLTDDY
T3 sequence (P09055 21-798, chain 2 of 2): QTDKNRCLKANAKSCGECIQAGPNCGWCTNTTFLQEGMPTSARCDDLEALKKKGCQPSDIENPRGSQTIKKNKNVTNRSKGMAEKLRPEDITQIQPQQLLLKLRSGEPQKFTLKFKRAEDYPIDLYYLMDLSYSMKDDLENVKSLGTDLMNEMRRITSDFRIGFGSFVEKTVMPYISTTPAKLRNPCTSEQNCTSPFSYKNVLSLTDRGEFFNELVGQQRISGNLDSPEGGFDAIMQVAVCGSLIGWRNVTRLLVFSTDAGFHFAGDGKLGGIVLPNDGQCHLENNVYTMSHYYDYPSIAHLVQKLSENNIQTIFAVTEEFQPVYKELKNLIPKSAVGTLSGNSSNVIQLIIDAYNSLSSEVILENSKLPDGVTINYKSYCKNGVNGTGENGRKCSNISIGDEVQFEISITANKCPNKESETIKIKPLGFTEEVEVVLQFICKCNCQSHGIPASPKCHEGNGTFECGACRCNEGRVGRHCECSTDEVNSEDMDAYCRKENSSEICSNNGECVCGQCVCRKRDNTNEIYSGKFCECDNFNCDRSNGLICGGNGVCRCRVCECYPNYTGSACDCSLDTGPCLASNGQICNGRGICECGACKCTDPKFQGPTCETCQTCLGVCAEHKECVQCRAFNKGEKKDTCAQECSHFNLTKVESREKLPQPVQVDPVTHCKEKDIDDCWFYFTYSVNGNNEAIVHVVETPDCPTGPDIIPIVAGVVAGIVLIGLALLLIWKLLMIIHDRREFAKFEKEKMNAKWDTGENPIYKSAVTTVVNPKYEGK
Description: Cells were sorted in an iCyt sy3200 (Sony) cell sorter previously calibrated with compensation beads (UltraComp eBeads, Thermo Scientific). AT1-, AT2-enriched cell populations and macrophages were centrifuged, and the number of phage particles per cell type was determined by TU count.
To further evaluate the bioavailability of [sequence]-displaying phage particles after aerosol administration, the binding capabilities of the phage particles to specific lung cells were determined by flow cytometry. […] Specific cell populations of the lung were isolated and flow cytometry sorted in three main cell populations (FIG. 5A): AT1-enriched population (EPCAM⁺, CD45⁻, CD31⁻, T1α^high); AT2-enriched population (EPCAM⁺, CD45⁻, CD31⁻, Tα^low) and mononuclear phagocytes (EPCAM⁻, CD45⁺, CD31⁻, F4/80⁺). The number of either targeted or control phage particles bound to each cell population was determined by TU counting after infection with a host bacterium.

T1 sequence (P26006 33-991 limits assumed): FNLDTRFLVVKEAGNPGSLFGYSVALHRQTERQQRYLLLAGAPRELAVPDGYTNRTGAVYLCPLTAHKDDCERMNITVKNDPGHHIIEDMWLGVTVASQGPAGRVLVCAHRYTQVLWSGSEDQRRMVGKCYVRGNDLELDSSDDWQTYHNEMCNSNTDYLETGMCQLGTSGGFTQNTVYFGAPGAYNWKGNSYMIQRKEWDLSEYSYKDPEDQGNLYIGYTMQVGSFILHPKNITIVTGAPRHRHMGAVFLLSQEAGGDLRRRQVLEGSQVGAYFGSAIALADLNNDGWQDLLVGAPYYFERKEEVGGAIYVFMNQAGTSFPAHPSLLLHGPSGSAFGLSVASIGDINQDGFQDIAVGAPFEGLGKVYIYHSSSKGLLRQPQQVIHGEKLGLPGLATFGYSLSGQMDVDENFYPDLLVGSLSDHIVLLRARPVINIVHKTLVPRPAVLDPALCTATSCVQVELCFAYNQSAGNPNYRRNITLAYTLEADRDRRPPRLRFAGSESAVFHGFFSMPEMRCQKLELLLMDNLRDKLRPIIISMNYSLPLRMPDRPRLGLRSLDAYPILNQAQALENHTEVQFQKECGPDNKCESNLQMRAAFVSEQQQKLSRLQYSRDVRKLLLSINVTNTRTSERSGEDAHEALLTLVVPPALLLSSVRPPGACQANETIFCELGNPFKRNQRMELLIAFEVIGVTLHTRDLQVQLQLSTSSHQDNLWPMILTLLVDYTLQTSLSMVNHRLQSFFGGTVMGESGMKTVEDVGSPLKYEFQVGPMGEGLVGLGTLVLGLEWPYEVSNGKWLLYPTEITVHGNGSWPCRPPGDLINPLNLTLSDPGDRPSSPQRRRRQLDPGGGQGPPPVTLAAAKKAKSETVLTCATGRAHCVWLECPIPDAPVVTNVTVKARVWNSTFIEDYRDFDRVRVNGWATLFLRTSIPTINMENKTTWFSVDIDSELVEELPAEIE
T1 sequence (P05556 21-728 limits assumed): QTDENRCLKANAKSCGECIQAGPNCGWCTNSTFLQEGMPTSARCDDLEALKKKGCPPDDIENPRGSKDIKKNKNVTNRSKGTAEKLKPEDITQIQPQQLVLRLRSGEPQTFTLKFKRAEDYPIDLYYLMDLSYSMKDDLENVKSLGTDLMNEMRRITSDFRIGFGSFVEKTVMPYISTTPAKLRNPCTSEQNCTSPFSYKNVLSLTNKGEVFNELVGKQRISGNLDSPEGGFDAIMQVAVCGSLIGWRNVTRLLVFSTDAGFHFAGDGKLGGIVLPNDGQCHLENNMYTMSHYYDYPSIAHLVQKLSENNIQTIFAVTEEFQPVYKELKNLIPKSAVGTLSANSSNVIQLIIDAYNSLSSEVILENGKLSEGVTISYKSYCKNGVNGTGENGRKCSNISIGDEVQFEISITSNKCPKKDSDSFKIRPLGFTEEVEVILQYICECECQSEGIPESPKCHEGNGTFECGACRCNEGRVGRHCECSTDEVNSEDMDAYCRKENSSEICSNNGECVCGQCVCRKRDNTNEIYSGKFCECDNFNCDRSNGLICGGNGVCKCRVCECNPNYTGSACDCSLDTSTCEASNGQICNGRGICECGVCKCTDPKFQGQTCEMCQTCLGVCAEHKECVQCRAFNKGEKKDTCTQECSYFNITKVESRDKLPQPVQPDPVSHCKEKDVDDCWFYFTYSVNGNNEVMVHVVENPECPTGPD
T2 sequence (P26006 33-991 limits assumed, chain 1 of 2): as the sequence (P26006 33-991 limits assumed) above
T2 sequence (P05556 21-728 limits assumed, chain 2 of 2): as the sequence (P05556 21-728 limits assumed) above

## CAKSMGDIVC-GST: recombinant CAKSMGDIVC-GST produced in E. coli transformed with the pGEX4T-1 plasmid (CAKSMGDIVC-{GST}; cysteine pairing not given here)
[1]
  competition of CAKSMGDIVC-displaying phage transport in Transwell: concentration-dependent ligand-receptor specificity

## CAKSMGDIVC [index ligand transport peptide; soluble synthetic peptide produced through Merrifield synthesis]
[2]
  inhibition of CAKSMGDIVC-displaying phage binding to α3β1 integrin: Concentration-dependent inhibition

B1: synthetic CAKSMGDIVC peptide (peptide)
peptide: CAKSMGDIVC
notes: Made by Merrifield synthesis; also called cognate synthetic peptide
[3]
  binding result: binds

B2: targeted CAKSMGDIVC-displaying phage particles (other, not shown: large carriers)
chain: CAKSMGDIVC
modifications: not fully specified (bridges); cysteine pairing not given here; also: displayed on phage pIII
notes: Whole phage particle; also called phage clone 2
[4]
  fold binding to AT1-enriched population against AT2-enriched cells: ~2 fold

— patent US20220332759A1, “TARGETED PULMONARY DELIVERY COMPOSITIONS AND METHODS USING SAME” (Rutgers, The State University of New Jersey, priority 2019, published 2022)
